Laboratory results published in PMC4425688.

Substrate: Nc1ccn([C@@H]2O[C@H](COP(=O)(O)OP(=O)(O)OP(=O)(O)O)[C@@H](O)[C@H]2O)c(=O)n1
Experiment: purified protein
Type: biochemical, Bacteroides thetaiotaomicron
Conditions: 6 mM KDN, 10 mM MgCl2, Tris pH 7.5, 25 °C

B1: BT1715 (Bacteroides thetaiotaomicron VPI-5482) (protein)
chain: MNYAFVVQARLGSTRLPGKILKPFYGNQSILDLMVHKLSAISNIPVIIATTNSVINEPIEKKALALGVKCFRGEENDVLKRFIDVAEYFDIQGIFRICSDNPFLDVHAARQLVEIAMKSCNDYISFDIDGTPSIKTHFGFWGEFVTLDALKRVIGFTDDLLYREHVTNYIYSHPELFNIQWISGSPVVSKHHNIRLTIDTLEDFSVAQRIYRDLQEKRVEISIEVIVDYVRRHAEYIQLMKQQIKKNSK
Q: With B1 as the protein, how does the Km read?
A: 510 ± 30 µM

Q: What about the kcat of the same protein?
A: 0.017 ± 0.0005 s⁻¹
